Source: the supplement of paper PMC9112550, “Optimization of the antimicrobial peptide Bac7 by deep mutational scanning” (BMC Biology, 2022)

What follows are sequences tested on Escherichia coli TOP10 (assay: shrunken log2 fold change of peptide-encoding DNA abundance (4.5 h post-induction vs induction); higher = less antimicrobial activity (less host growth inhibition)). Settings: time post-induction: 4.5 h; library: site-saturation at positions 5, 18, 19, 20.
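Also: peptides expressed intracellularly from a pBAD plasmid library in pooled LB shake-flask culture, induced with 0.3% L-arabinose, DNA abundance read by NGS, three biological replicates, DESeq2 with apeglm shrinkage.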

Point of comparison: RRIRQRPPRLPRPRPRPAPGPRP, “shrunken log2 fold change” value 0.417. Against it:
- RRIRQRPPRLPRPRPRPGWMPRP — lower, -0.115
- RRIRARPPRLPRPRPRPVMLPRP — lower, -0.19
- RRIRQRPPRLPRPRPRPCDHPRP — lower, 0.00902
- RRIRGRPPRLPRPRPRPNQPPRP — within 0.2 log units, 0.295
- RRIRCRPPRLPRPRPRPCWRPRP — within 0.2 log units, 0.252
- RRIRCRPPRLPRPRPRPTLFPRP — lower, 0.196
- RRIRWRPPRLPRPRPRPRKSPRP — within 0.2 log units, 0.264
- RRIRGRPPRLPRPRPRPLWRPRP — higher, 0.625
- RRIRGRPPRLPRPRPRPIAIPRP — lower, 0.216
- RRIRFRPPRLPRPRPRPWAEPRP — lower, 0.212
- RRIRERPPRLPRPRPRPVGLPRP — lower, 0.147
- RRIRKRPPRLPRPRPRPISNPRP — lower, 0.153
- RRIRFRPPRLPRPRPRPTYAPRP — lower, -0.203
- RRIRCRPPRLPRPRPRPNEVPRP — lower, -0.153
- RRIRFRPPRLPRPRPRPLNYPRP — lower, -0.755
- RRIRFRPPRLPRPRPRPNSVPRP — lower, -0.0912
- RRIRSRPPRLPRPRPRPIGAPRP — lower, 0.058
- RRIRYRPPRLPRPRPRPWFRPRP — lower, -0.567
- RRIRIRPPRLPRPRPRPFAPPRP — higher, 1.3
- RRIRYRPPRLPRPRPRPPFYPRP — lower, -0.789
- RRIRPRPPRLPRPRPRPWSPPRP — lower, 0.121
- RRIRWRPPRLPRPRPRPRPKPRP — higher, 0.697
- RRIRKRPPRLPRPRPRPQDMPRP — lower, -0.036
- RRIRPRPPRLPRPRPRPNNIPRP — lower, -0.848
- RRIRFRPPRLPRPRPRPVRQPRP — lower, 0.0478
- RRIRMRPPRLPRPRPRPYLEPRP — lower, -0.0515
- RRIRERPPRLPRPRPRPAMPPRP — lower, -0.0115
- RRIRERPPRLPRPRPRPLGGPRP — lower, -0.073
- RRIRRRPPRLPRPRPRPPGLPRP — higher, 0.658
- RRIRYRPPRLPRPRPRPSAQPRP — lower, -0.17
- RRIRPRPPRLPRPRPRPSCFPRP — lower, -0.193
- RRIRMRPPRLPRPRPRPQYHPRP — lower, -0.299
- RRIRNRPPRLPRPRPRPMWWPRP — lower, -0.0071
- RRIRRRPPRLPRPRPRPCTRPRP — lower, 0.0341
- RRIRKRPPRLPRPRPRPMMKPRP — higher, 1.05
- RRIRQRPPRLPRPRPRPYTPPRP — lower, -0.856
- RRIRYRPPRLPRPRPRPNWWPRP — lower, -0.00469
- RRIRFRPPRLPRPRPRPFITPRP — lower, -0.918
- RRIRARPPRLPRPRPRPFEIPRP — lower, 0.083
- RRIRVRPPRLPRPRPRPIYAPRP — lower, -0.0133
- RRIRYRPPRLPRPRPRPCMHPRP — lower, -0.351
- RRIRSRPPRLPRPRPRPRMGPRP — within 0.2 log units, 0.234
- RRIRPRPPRLPRPRPRPILCPRP — lower, 0.179
- RRIRDRPPRLPRPRPRPPAIPRP — lower, 0.00372
- RRIRDRPPRLPRPRPRPADRPRP — lower, 0.0125
- RRIRFRPPRLPRPRPRPKAGPRP — within 0.2 log units, 0.307
- RRIRNRPPRLPRPRPRPQHNPRP — lower, -0.625
- RRIRYRPPRLPRPRPRPTIDPRP — lower, -0.271
- RRIRRRPPRLPRPRPRPDIGPRP — lower, -0.0303
- RRIRMRPPRLPRPRPRPHPSPRP — lower, -0.127
- RRIRGRPPRLPRPRPRPCQHPRP — lower, -0.153
- RRIRPRPPRLPRPRPRPDTIPRP — lower, -0.247
- RRIRMRPPRLPRPRPRPEISPRP — lower, 0.0502
- RRIRYRPPRLPRPRPRPENLPRP — lower, 0.0949
- RRIRGRPPRLPRPRPRPVRSPRP — higher, 0.902
- RRIRQRPPRLPRPRPRPRESPRP — lower, 0.0584
- RRIRYRPPRLPRPRPRPVLAPRP — lower, -0.037
- RRIRHRPPRLPRPRPRPHRMPRP — lower, -0.46
- RRIRQRPPRLPRPRPRPWKFPRP — lower, 0.0543
- RRIRTRPPRLPRPRPRPAGWPRP — within 0.2 log units, 0.517
- RRIRWRPPRLPRPRPRPVKKPRP — within 0.2 log units, 0.29
- RRIRERPPRLPRPRPRPIGWPRP — lower, 0.0874
- RRIRPRPPRLPRPRPRPLTYPRP — lower, -0.0089
- RRIRIRPPRLPRPRPRPMHFPRP — lower, -0.487
- RRIRLRPPRLPRPRPRPQMKPRP — lower, -0.0293
- RRIRWRPPRLPRPRPRPNCRPRP — lower, 0.0177
- RRIRTRPPRLPRPRPRPHHIPRP — lower, -0.278
- RRIRMRPPRLPRPRPRPYAQPRP — lower, -0.291
- RRIRYRPPRLPRPRPRPGWNPRP — lower, -0.182
- RRIRCRPPRLPRPRPRPKEQPRP — lower, 0.0429
- RRIRVRPPRLPRPRPRPAPKPRP — within 0.2 log units, 0.438
- RRIRNRPPRLPRPRPRPTIFPRP — lower, -0.248
- RRIRYRPPRLPRPRPRPSEQPRP — lower, -0.0359
- RRIRMRPPRLPRPRPRPMPIPRP — lower, 0.0625
- RRIRPRPPRLPRPRPRPDTNPRP — lower, -0.239
- RRIRVRPPRLPRPRPRPIETPRP — lower, 0.0184
- RRIRVRPPRLPRPRPRPWLHPRP — lower, 0.215
- RRIRIRPPRLPRPRPRPIVLPRP — lower, -0.181
- RRIRTRPPRLPRPRPRPNTNPRP — lower, -0.556
- RRIRTRPPRLPRPRPRPLWIPRP — lower, -0.331
- RRIRCRPPRLPRPRPRPFVKPRP — lower, -0.4
- RRIRFRPPRLPRPRPRPQGEPRP — lower, 0.00441
- RRIRCRPPRLPRPRPRPYPNPRP — lower, -0.459
- RRIRSRPPRLPRPRPRPDKAPRP — lower, -0.111
- RRIRMRPPRLPRPRPRPGQIPRP — lower, -0.00968
- RRIRHRPPRLPRPRPRPAQHPRP — lower, -0.14
- RRIRTRPPRLPRPRPRPGWHPRP — lower, -0.014
- RRIRPRPPRLPRPRPRPGMVPRP — within 0.2 log units, 0.268
- RRIRSRPPRLPRPRPRPNVNPRP — within 0.2 log units, 0.259
- RRIRNRPPRLPRPRPRPPHSPRP — lower, 0.183
- RRIRSRPPRLPRPRPRPKRRPRP — within 0.2 log units, 0.33
- RRIRCRPPRLPRPRPRPDAPPRP — within 0.2 log units, 0.515
- RRIRPRPPRLPRPRPRPDAKPRP — lower, 0.201
- RRIRSRPPRLPRPRPRPRATPRP — within 0.2 log units, 0.301
- RRIRRRPPRLPRPRPRPMRCPRP — within 0.2 log units, 0.384
- RRIRGRPPRLPRPRPRPNFCPRP — within 0.2 log units, 0.362
- RRIRYRPPRLPRPRPRPSSHPRP — lower, -2.24
- RRIRVRPPRLPRPRPRPPRTPRP — within 0.2 log units, 0.331
- RRIRTRPPRLPRPRPRPNGYPRP — lower, -0.12
- RRIRWRPPRLPRPRPRPTEHPRP — lower, -0.093
- RRIRGRPPRLPRPRPRPSSSPRP — lower, -0.296
- RRIRWRPPRLPRPRPRPDFTPRP — lower, 0.15
- RRIRYRPPRLPRPRPRPVKNPRP — lower, -0.381
- RRIRPRPPRLPRPRPRPRTIPRP — lower, 0.206
- RRIRQRPPRLPRPRPRPPEYPRP — lower, -0.245
- RRIRVRPPRLPRPRPRPMNDPRP — lower, -0.187
- RRIRIRPPRLPRPRPRPAIMPRP — lower, -0.565
- RRIRNRPPRLPRPRPRPHCHPRP — lower, -0.398
- RRIRQRPPRLPRPRPRPFEHPRP — lower, -0.00133
- RRIRDRPPRLPRPRPRPPYWPRP — within 0.2 log units, 0.246
- RRIRFRPPRLPRPRPRPFFSPRP — lower, -0.59
- RRIRHRPPRLPRPRPRPQACPRP — lower, -0.208
- RRIRYRPPRLPRPRPRPYINPRP — lower, -1.69
- RRIRIRPPRLPRPRPRPRFKPRP — lower, -0.575
- RRIRDRPPRLPRPRPRPICRPRP — within 0.2 log units, 0.266
- RRIRPRPPRLPRPRPRPECHPRP — lower, -0.0419
- RRIRKRPPRLPRPRPRPGCNPRP — higher, 0.754
- RRIRPRPPRLPRPRPRPYDRPRP — lower, -0.319
- RRIRLRPPRLPRPRPRPDYDPRP — lower, -0.496
- RRIRTRPPRLPRPRPRPSQVPRP — lower, -0.2
- RRIRDRPPRLPRPRPRPTLGPRP — higher, 1.08
- RRIRERPPRLPRPRPRPKQVPRP — lower, -0.131
- RRIRPRPPRLPRPRPRPWYAPRP — lower, -0.107
- RRIRMRPPRLPRPRPRPDRMPRP — within 0.2 log units, 0.422
- RRIRSRPPRLPRPRPRPDMPPRP — lower, -0.0754
- RRIRCRPPRLPRPRPRPQVAPRP — lower, 0.0924
- RRIRWRPPRLPRPRPRPHYGPRP — lower, -0.0711
- RRIRFRPPRLPRPRPRPFAHPRP — lower, -0.0794
- RRIRKRPPRLPRPRPRPLEFPRP — lower, 0.124
- RRIRGRPPRLPRPRPRPTHAPRP — higher, 1.3
- RRIRSRPPRLPRPRPRPAKPPRP — lower, -0.146
- RRIRTRPPRLPRPRPRPDVFPRP — lower, 0.0603
- RRIRFRPPRLPRPRPRPDDYPRP — lower, -0.0193
- RRIRDRPPRLPRPRPRPAFLPRP — lower, 0.000425
- RRIRVRPPRLPRPRPRPTWYPRP — lower, -0.0971
- RRIRWRPPRLPRPRPRPWCLPRP — lower, -0.334
- RRIRRRPPRLPRPRPRPGWVPRP — within 0.2 log units, 0.359
- RRIRTRPPRLPRPRPRPMPTPRP — lower, 0.0982
- RRIRRRPPRLPRPRPRPPWKPRP — lower, 0.0487
- RRIRQRPPRLPRPRPRPITMPRP — lower, 0.00801
- RRIRVRPPRLPRPRPRPWSVPRP — lower, -0.0304
- RRIRYRPPRLPRPRPRPPGMPRP — lower, 0.0171
- RRIRTRPPRLPRPRPRPEWHPRP — lower, 0.0594
- RRIRCRPPRLPRPRPRPVPEPRP — within 0.2 log units, 0.316
- RRIRFRPPRLPRPRPRPNHEPRP — lower, -0.56
- RRIRYRPPRLPRPRPRPASPPRP — lower, -0.161
- RRIRRRPPRLPRPRPRPNAPPRP — higher, 0.675
- RRIRHRPPRLPRPRPRPGRPPRP — within 0.2 log units, 0.616
- RRIRGRPPRLPRPRPRPPVNPRP — within 0.2 log units, 0.55
